# Assay results reported in patent US12214004B2, “Strains having effects of preventing or treating cancers” (Genome And Company, priority 2018, dated 2025).
# Where two headings read alike, the source gives them in different places.
# Key:
# HCT116 [1] = assay: Cell lysis ability of PBMC against cancer cells (CFSE/7-AAD), MG731; assay type: cell-based; settings: cancer cell death caused by PBMC set to 100%
# Experimental: (§1) PBMCs (peripheral blood mononuclear cells) were collected from the human blood using Ficoll, and then red blood cells were removed through RBC lysis buffer, and the number of living cells was counted, and the cells were cultured for 24 hours in a round bottom 96 well plate containing lactic acid bacteria (6×10^5/50 ul/well) by adding PBMC 3 x 10^4 cells/50 μl to each well.
# (§2) The colon cancer cell line HCT116 was mixed with 5 μM of CFSE (carboxyfluorescein succinimidyl ester) in RPMI medium without FBS, and reacted at 37° C. for 5 minutes, and then RPMI1640 medium containing FBS was added, and stored on ice for 10 minutes. After the supernatant was removed by centrifugation, the obtained cells were mixed with RPMI1640 containing 10% FBS, and then the number of cells was counted, and 3×10^4 cells/100 μl were added to each well of the above prepared 96 well plate.
# Staining for CFSE and 7-AAD using FACSDiVa software (BD Biosciences) was measured to confirm the cell lysis ability of PBMC against cancer cell lines, and the results are shown in FIG. 9.
# HCT116 [2] = assay: Cell lysis ability of PBMC against cancer cells (CFSE/7-AAD), GEN3033; assay type: cell-based, human; settings: cancer cell death caused by PBMC set to 100%
# Experimental: as §1, with “(3×10^5/50” for “(6×10^5/50”
# as §2
# Staining for CFSE and 7-AAD using FACSDiVa software (BD Biosciences) was measured to confirm the cell lysis ability of PBMC against cancer cell lines, and the results are shown in FIG. 29.
# MC38 cancer cells = assay: MC38 tumor-induced model in C57BL/6 mice, MG731; assay type: in vivo, mouse; settings: administered in combination with MG731
# Experimental: Prior to constructing a tumor model, a sample of lactic acid bacteria was administered to mice for 2 weeks to increase intestinal establishment and immunity, and then 2×10^5 MC38 cancer cells were injected subcutaneously in the vicinity of the right hip of 8 C57BL/6 mice per group to construct a tumor-induced model. Simultaneously with injection of tumor cells, a sample of lactic acid bacteria was orally administered to the animal model for 3 weeks (from Monday to Saturday). The sample of lactic acid bacteria to be administered was diluted in 200 μL of PBS so as to be 1×10^9 of CFU per head and then administered orally.
# HCT116 [3] = system: HCT116
# HCT116 [4] = assay: HCT116 cell viability, anticancer chemotherapeutic agent with GEN3033
# [5] = HCT116, combination treatment with 0.5% GEN3033, compared to the agent alone
compound,measurement,setting,value
Ipilimumab [antiCTLA-4],cancer cell death (cytotoxicity),HCT116 [1]; alone,108%
same,cancer cell death (cytotoxicity),HCT116 [1]; in combination with MG731,214.4%
same,cancer cell death (cytotoxicity),HCT116 [2]; alone,116.0%
same,cancer cell death (cytotoxicity),HCT116 [2]; in combination with GEN3033,128.3%
O=C1[O][Pt]2([NH][C@@H]3CCCC[C@H]3[NH]2)[O]C1=O [oxaliplatin],tumor inhibitory effect,MC38 cancer cells,more excellent
same,cell viability,HCT116 [3],≥ 90%
same,cancer cell death,HCT116 [4],remarkably high
O=P1(N(CCCl)CCCl)NCCCO1 (stereo not drawn) [cyclophosphamide],cancer cell death,HCT116 [4]; [5],remarkably high
CC(=O)O[C@H]1C(=O)[C@@]2(C)[C@H]([C@H](OC(=O)c3ccccc3)[C@]3(O)C[C@H](OC(=O)[C@H](O)[C@@H](NC(=O)c4ccccc4)c4ccccc4)C(C)=C1C3(C)C)[C@]1(OC(C)=O)CO[C@@H]1C[C@@H]2O [paclitaxel],cancer cell death,HCT116 [4]; [5],remarkably high
"N.N.[Cl][Pt][Cl] [Cisplatin, cisplatin]",cell viability,"HCT116 [4]; HCT116, 7 μM Cisplatin in combination with 0.5% GEN3033, compared to 7 μM Cisplatin alone",remarkably reduced
Atezolizumab [anti-PD-L1],cancer cell death (cytotoxicity),HCT116 [1]; alone,133.6%
same,cancer cell death (cytotoxicity),HCT116 [1]; in combination with MG731,221.6%
same,cancer cell death (cytotoxicity),HCT116 [2]; alone,123.5%
same,cancer cell death (cytotoxicity),HCT116 [2]; in combination with GEN3033,154.0%
"O=c1[nH]cc(F)c(=O)[nH]1 [5-FU, fluorouracil]",cancer cell death,HCT116 [4]; [5],remarkably high
